[ ]: non-standard residue; d: D form. Phe(2-Cl) = N[C@@H](Cc1ccccc1Cl)C(=O)O
B1: Ac-FPPPP-OH (peptide)
peptide: Ac-FPPPP-OH
notes: Starting ligand shortened to the FPPPP core motif; also called FPPPP core motif ligand
B2: Ac-Phe(2-Cl)-PPPP-OH (peptide)
peptide: Ac-[Phe(2-Cl)]PPPP-OH
SMILES: CC(=O)N[C@@H](Cc1ccccc1Cl)C(=O)N1CCC[C@H]1C(=O)N1CCC[C@H]1C(=O)N1CCC[C@H]1C(=O)N1CCC[C@H]1C(=O)O

Columns and labels:
VASP-EVH1 domain [1] = molecular target: VASP-EVH1 domain (UniProt P50552); assay: ITC
VASP-EVH1 domain [2] = molecular target: VASP-EVH1 domain (UniProt P50552); assay: fluorescence titration (FT)
VASP-EVH1 domain [3] = molecular target: T1, VASP-EVH1 domain (UniProt P50552 1-115); assay: ITC
T1 construct: domain: EVH1

VASP-EVH1 domain [4] = molecular target: T1, VASP-EVH1 domain; assay: fluorescence titration (FT)

Chain of VASP-EVH1 domain (UniProt P50552) (P50552 1-115 limits assumed): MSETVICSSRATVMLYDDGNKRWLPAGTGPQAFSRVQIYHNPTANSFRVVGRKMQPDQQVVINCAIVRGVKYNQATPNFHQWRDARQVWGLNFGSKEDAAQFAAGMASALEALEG
T1 sequence (P50552 1-115 limits assumed): as above

| Molecule | Kd (VASP-EVH1 domain [1]) [µM] | ΔG (VASP-EVH1 domain [1]) [kJ/mol] | Kd (VASP-EVH1 domain [2]) [nM] | ΔG (VASP-EVH1 domain [2]) [kJ/mol] | Kd (VASP-EVH1 domain [3]) [µM] | ΔG (VASP-EVH1 domain [3]) [kJ/mol] | Kd (VASP-EVH1 domain [4]) [µM] | ΔG (VASP-EVH1 domain [4]) [kJ/mol] |
| --- | --- | --- | --- | --- | --- | --- | --- | --- |
| Ac-Phe(2-Cl)-PP[ProM-9]-OH (peptide) | 8 | -29.1 | 400 | -36.7 | – | – | – | – |
| Ac-Phe(2-Cl)-PP[ProM-1]-OH (peptide) | 14.1 | -27.7 | 3200 | -31.4 | – | – | – | – |
| Ac-Phe(2-Cl)-[ProM-2][ProM-4]-OH | 9.7 | -28.6 | 1600 | -33.1 | – | – | – | – |
| B1 | – | – | – | – | 1300 | -16.5 | 780 | -17.7 |
| B2 | – | – | – | – | 18 | -27 | 13 | -27.8 |

Source: US20170320910A1 (published 2017)
